In US20040002128:

T1: AC-DEVD-CHO
T1 chain: DEVD

T2: sensor B, polyhistidine-tagged recombinant FRET probe (bacterial version) (not fully specified)
T2 chain: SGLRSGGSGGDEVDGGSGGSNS

T3: CFP-YFP fusion protein, polyhistidine-tagged (bacterial version, no caspase substrate sequence)
T3 chain: SGLRSRAQASNS

T4: sensor A, polyhistidine-tagged recombinant FRET probe (bacterial version) (not fully specified)
T4 chain: SGLRSGGDEVDGGSNS


What was measured:
[1] = target: T1, AC-DEVD-CHO
[2] = target: T2, sensor B, polyhistidine-tagged …
[3] = target: T3, CFP-YFP fusion protein, …
[4] = target: T4, sensor A, polyhistidine-tagged …
[5] = target: sensor C8, polyhistidine-tagged
[6] = target: sensor C8A, polyhistidine-tagged

Protein	cleavage of sensor A by caspase-3, Western blot [1]	cleavage, Western blot [2]	decrease of the emission ratio of YFP/CFP [2]	dosage-dependent caspase-3 cleavage assay, normalized emission ratio (YFP/CFP) [2]	emission ratio of YFP/CFP before and after caspase-3 [2]	cleavage, Western blot [3]	emission spectrum after caspase-3 [3]	cleavage, Western blot [4]	decrease of the emission ratio of YFP/CFP [4]	dosage-dependent caspase-3 cleavage assay, normalized emission ratio (YFP/CFP) [4]	emission ratio of YFP/CFP before and after caspase-3 [4]	caspase-8 concentration that reduces the FRET effect by 50% (sensor 22.45 nM, one hour) [5]	caspase-8 needed for 50% FRET reduction, against sensor C8A [5]	cleavage, Western blot [5]	fraction of the sensor cleaved, band intensity on Western blot, caspase-8 216 nM, one hour [5]	caspase-8 concentration that reduces the FRET effect by 50% (sensor 22.45 nM, one hour) [6]	cleavage, Western blot [6]	fraction of the sensor cleaved, band intensity on Western blot, caspase-8 216 nM, one hour [6]
caspase-3 (protein) SGISLDNSYKMDYPEMGLCIIINNKNFHKSTGMTSRSGTDVDAANLRETFRNLKYEVRNKNDLTREEIVELMRDVSKEDHSKRSSFVCVLLSHGEEGIIFGTNGPVDLKKITNFFRGDRCRSLTGKPKLFIIQACRGTELDCGIETDSGVDDDMACHKIPVEADFLYAYSTAPGYYSWRNSKDGSWFIQSLCAMLKQYADKLEFMHILTRVNRKVATEFESFSFDATFHAKKQIPCIVSMLTKELYFYH	In the presence of caspase-3 inhibitor (AC-DEVD-CHO), no FRET probe (sensor A) was cleaved	caspase-3 can cleave almost all the sensor A and sensor B protein	decreased by 4-5 fold	both FRET probes were highly sensitive to caspase-3, although sensor A appeared to be slightly more sensitive than sensor B	from 2.76 to 0.59 for sensor B	no cleavage was seen for CFP-YFP fusion protein under the same condition	no change for the emission spectrum was observed from the CFP-YFP fusion protein which lacks the substrate sequence	caspase-3 can cleave almost all the sensor A and sensor B protein	decreased by 4-5 fold	both FRET probes were highly sensitive to caspase-3, although sensor A appeared to be slightly more sensitive than sensor B	from 3.02 to 0.59 for sensor A							
caspase-8 (protein) SESQTLDKVYQMKSKPRGYCLIINNHNFAKAREKVPKLHSIRDRNGTHLDAGALTTTFEELHFEIKPHDDCTVEQIYEILKIYQLMDHSNMDCFICCILSHGDKGIIYGTDGQEAPIYELTSQFTGLKCPSLAGKPKVFFIQACQGDNYQKGIPVETDSEEQPYLEMDLSSPQTRYIPDEADFLLGMATVNNCVSYRNPAEGTWYIQSLCQSLRERCPRGDDILTILTEVNYEVSNKDDKKNMGKQMPQPTFTLRKKLVFPSD												about 5-fold more caspase-8 (3.4 nM) was required to produce the same FRET reduction for sensor C8	about 5-fold more caspase-8 (3.4 nM) was required to produce the same FRET reduction for sensor C8	both sensor C8 and C8A could be cleaved by caspase-8 to release a CFP and a YFP molecule	only 58% of the sensor C8 protein was cleaved under the same condition	about 0.71 nM of caspase-8 was needed to reduce 50% of the FRET effect for sensor C8A	both sensor C8 and C8A could be cleaved by caspase-8 to release a CFP and a YFP molecule	95% of the sensor C8A protein was cleaved after incubation with caspase-8 (216 nM) for one hour
